B1: VASN: Vasorin, known ADAM17 substrate; library peptide amino acids 496-585 (protein)
peptide: LTYRNLSGPDKRLVTLRLPASLAEYTVTQLRPNATYSVCVMPLGPGRVPEGEEACGEAHTPPAVHSNHAPVTQAREGNLPLLIAPALAAV
B2: MELQSRPEALAVELARHQNGDLKKQLHERQPRIAALSDKQALGTITAVPVTGPQVSSLQRLAGQGAAVLPQVRPKTLIPDSLPVAPGRDR (protein, listed as Homo sapiens)
chain: MELQSRPEALAVELARHQNGDLKKQLHERQPRIAALSDKQALGTITAVPVTGPQVSSLQRLAGQGAAVLPQVRPKTLIPDSLPVAPGRDR
B3: PARLLGPSLTSTTPASSSSGSSSRGPSDTSSRFSKEQRGVAQPLAQLRSCPQEEGPRGRGLAARPLENRAGGPVARSEEPGAPLPVAVGT (protein, listed as Homo sapiens)
chain: PARLLGPSLTSTTPASSSSGSSSRGPSDTSSRFSKEQRGVAQPLAQLRSCPQEEGPRGRGLAARPLENRAGGPVARSEEPGAPLPVAVGT
B4: YVAPLTAQPATYRAQPSVSLGAAYRAQPSASLGVGYRTQPMTAQAASYRAQPSVSLGAPYRGQLASPSSQSAAASSLGPYGGAQPSASAL (protein, listed as Homo sapiens)
chain: YVAPLTAQPATYRAQPSVSLGAAYRAQPSASLGVGYRTQPMTAQAASYRAQPSVSLGAPYRGQLASPSSQSAAASSLGPYGGAQPSASAL
B5: QSVSPVQAPPPGGSAQLLPGKVLVPLAAPSMSVRGGGAGQPLPLVSPPFSVPVQNGAQPPSKIIQLTPVPVSTPSGLVPPLSPATLPGPT (protein, listed as Homo sapiens)
chain: QSVSPVQAPPPGGSAQLLPGKVLVPLAAPSMSVRGGGAGQPLPLVSPPFSVPVQNGAQPPSKIIQLTPVPVSTPSGLVPPLSPATLPGPTA
B6: SPLIAPVMGTVAVSLSSPLLSSTATPPGVSQNLLANPMSNLVLPEAPRLRLAEPLRGGPTGPQSPACVVPTATTKVPLSTEPPQSTQDPE (protein, listed as Homo sapiens)
chain: SPLIAPVMGTVAVSLSSPLLSSTATPPGVSQNLLANPMSNLVLPEAPRLRLAEPLRGGPTGPQSPACVVPTATTKVPLSTEPPQSTQDPE
B7: AIRLANSTASVSRGSMQELDMLAGLRRSHAPQSRSSLNAKPHDSLDLNCDSRDFVAAIISIPTPPANTPDESQPSSPGGGGRAGSTLRNS (protein, listed as Homo sapiens)
chain: AIRLANSTASVSRGSMQELDMLAGLRRSHAPQSRSSLNAKPHDSLDLNCDSRDFVAAIISIPTPPANTPDESQPSSPGGGGRAGSTLRNS
B8: KAGVVTLHSVGPTAATGTTAGTGLLQTSKPLVTSVANTVTTVSLQPEKPVVSGTAVTLSLPAVTFGETSGAAICLPSVKPVVSSAGTTS (protein, listed as Homo sapiens)
chain: KAGVVTLHSVGPTAATGTTAGTGLLQTSKPLVTSVANTVTTVSLQPEKPVVSGTAVTLSLPAVTFGETSGAAICLPSVKPVVSSAGTTS
B9: SSVSTGHTTPLHVTDASSASTGQATPLPVTSLSSVSTGDTTPLPVTSPSSASTGHATPLLVTDTSSASTGHATPLPVTDASSVSTDHATS (protein, listed as Homo sapiens)
chain: SSVSTGHTTPLHVTDASSASTGQATPLPVTSLSSVSTGDTTPLPVTSPSSASTGHATPLLVTDTSSASTGHATPLPVTDASSVSTDHATS
B10: ATPGAPGSSTPGEADIGNTSFGKSGKSGHDSLTVLNPAFLRRTPTVSAASTTSSPVSKHTDAASATAVTISGSKPGTPGTPGGATSGGKI (protein, listed as Homo sapiens)
chain: ATPGAPGSSTPGEADIGNTSFGKSGKSGHDSLTVLNPAFLRRTPTVSAASTTSSPVSKHTDAASATAVTISGSKPGTPGTPGGATSGGKI
B11: EIVPASLQRVRRPVAMVMPARRTPHVQAVQGPLGSPPKRGPLPTEEQRVYRRKELEEVSPETPVVPATTQRTLARPGPEPAPATDERDRV (protein, listed as Homo sapiens)
chain: EIVPASLQRVRRPVAMVMPARRTPHVQAVQGPLGSPPKRGPLPTEEQRVYRRKELEEVSPETPVVPATTQRTLARPGPEPAPATDERDRV
B12: PVTSTSSASTGHATPLPVTGLSSATTDDTTRLPVTDVSSASTGQATPLPVTSLSSVSTGDTTPLPVTSPSSASTGHASPLLVTDASSAST (protein, listed as Homo sapiens)
chain: PVTSTSSASTGHATPLPVTGLSSATTDDTTRLPVTDVSSASTGQATPLPVTSLSSVSTGDTTPLPVTSPSSASTGHASPLLVTDASSAST
B13: KVATLPLSSRAGAPPAAVPIINMILPTVPALPGPGPGPGRAPPGGLTQPRGTENREVGIGGDQGPHDKGVKRTAEVPVSEASGQAPPAKA (protein, listed as Homo sapiens)
chain: KVATLPLSSRAGAPPAAVPIINMILPTVPALPGPGPGPGRAPPGGLTQPRGTENREVGIGGDQGPHDKGVKRTAEVPVSEASGQAPPAKA
B14: RLALPLRSLSASSGWNESCSSQSDISLDHVQRRRSRLKEPPELQSSERAAGSPPAPGTMSKHRGKSSATCRCCVTYCEGENHLRNKSRAE (protein, listed as Homo sapiens)
chain: RLALPLRSLSASSGWNESCSSQSDISLDHVQRRRSRLKEPPELQSSERAAGSPPAPGTMSKHRGKSSATCRCCVTYCEGENHLRNKSRAE
B15: HSALPFRLQLRRGEARLGEERHFQESGNSSWEILRASKAEEGTYECTAVSRAGTGRAKAQIVVTDPPPQLVPAPNVTVSPGETAVLSCRV (protein, listed as Homo sapiens)
chain: HSALPFRLQLRRGEARLGEERHFQESGNSSWEILRASKAEEGTYECTAVSRAGTGRAKAQIVVTDPPPQLVPAPNVTVSPGETAVLSCRV
B16: … (protein, listed as Homo sapiens)
chain: STRPVLASIEPELPMQLVSQDDESGQKKLHGLQAILVHEASGTTAITATATGYQESHLSSARTKQPHDPLVPLSASIELILVEDVRVSPE
B17: IAAKAQLARQQSPSPIRHSPSPVRHVRAPTPSPVRSVSPAARISTSPIRSVRSPLLMRKTQASTVATGPEVPPPWKQEGYVASSSEAEMR (protein, listed as Homo sapiens)
chain: IAAKAQLARQQSPSPIRHSPSPVRHVRAPTPSPVRSVSPAARISTSPIRSVRSPLLMRKTQASTVATGPEVPPPWKQEGYVASSSEAEMR
B18: ARQEKLAFQEDSRSTLSRRELDAAHTGTTGQDSDFPVTAASTVDFLKIKKSCEENVCRSLKDCEMEKCPDSCAHEMESVADHEPNKRILG (protein, listed as Homo sapiens)
chain: ARQEKLAFQEDSRSTLSRRELDAAHTGTTGQDSDFPVTAASTVDFLKIKKSCEENVCRSLKDCEMEKCPDSCAHEMESVADHEPNKRILG
B19: EPEPTPGLVLSKPALEEEEAPRALSLLSLPPKKRSILGLGQARPLEFLRTCYGGSFLVHESFLYKREKAVGDKVYWTCRDHALHGCRSRA (protein, listed as Homo sapiens)
chain: EPEPTPGLVLSKPALEEEEAPRALSLLSLPPKKRSILGLGQARPLEFLRTCYGGSFLVHESFLYKREKAVGDKVYWTCRDHALHGCRSRA
B20: VLNSGARVWPSASALGLTAPPKDAEDRARPASGLRGARVLSEGREPRASLRVQVRPGLDVAAPGVCSLSCPSPPRSSAHPGPRGPLFPAL (protein, listed as Homo sapiens)
chain: VLNSGARVWPSASALGLTAPPKDAEDRARPASGLRGARVLSEGREPRASLRVQVRPGLDVAAPGVCSLSCPSPPRSSAHPGPRGPLFPAL

Molecular target: T1, ADAM17 (Homo sapiens, UniProt P78536)
T1 construct: purchased RnD Systems
T1 sequence (P78536 215-824): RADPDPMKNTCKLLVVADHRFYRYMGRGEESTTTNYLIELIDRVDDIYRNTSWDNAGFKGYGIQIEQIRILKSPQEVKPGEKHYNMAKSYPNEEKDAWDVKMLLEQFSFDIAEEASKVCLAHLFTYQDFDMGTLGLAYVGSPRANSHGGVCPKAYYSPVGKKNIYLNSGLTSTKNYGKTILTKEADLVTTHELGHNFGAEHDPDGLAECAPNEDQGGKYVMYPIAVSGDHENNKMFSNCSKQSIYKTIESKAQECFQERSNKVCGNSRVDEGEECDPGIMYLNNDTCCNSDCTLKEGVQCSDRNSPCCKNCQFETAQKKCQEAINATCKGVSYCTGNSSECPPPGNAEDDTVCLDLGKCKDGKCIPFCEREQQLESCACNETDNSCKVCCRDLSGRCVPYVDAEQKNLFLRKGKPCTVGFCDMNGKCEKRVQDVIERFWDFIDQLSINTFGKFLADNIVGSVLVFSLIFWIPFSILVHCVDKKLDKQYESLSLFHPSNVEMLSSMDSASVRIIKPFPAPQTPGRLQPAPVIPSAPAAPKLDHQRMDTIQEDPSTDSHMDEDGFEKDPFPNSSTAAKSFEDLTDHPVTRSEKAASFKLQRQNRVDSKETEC
Assay: SEPARATE assay: human peptidome library digest with ADAM17
Assay type: biochemical
Conditions: human library, ADAM17; peptide amino acids 496-585
Protocol: Streptavidin-coupled magnetic beads (Dynabeads M-280 Streptavidin, ThermoFisher Scientific) were washed (TBS, pH 7.4, 0.01% NP40) and resuspended in binding buffer (TBS, pH 7.4, 0.001% NP40) containing 2E9 plaque forming units per 10 μl of bead slurry. End-over-end mixing at room temperature was performed for one hour. Phage-coated beads were washed three times with wash buffer and transferred into two protein LoBind Eppendorf tubes blocked with TBS, pH 7.4 containing 1% BSA.
Digestion occurred overnight at room temperature with end-over-end rotation. […] To remove any residual biotinylated phage that may have been nonspecifically released, the 150 μl supernatant of the quenched digest reaction is then incubated with a fresh 10 μl of slurry volume M280 streptavidin beads (pre-washed three times with wash buffer) in a LoBind Eppendorf tube blocked with TBS, pH 7.4 containing 1% BSA at room temperature for one hour with end-over-end rotation.
10 μl slurry volume of protein G magnetic dynabeads were washed in buffer (TBS, pH 7.4, 0.01% NP40) and then resuspended in 50 μl TBS, pH 7.4, 0.01% NP40 containing 4 μg of M2 FLAG antibody for thirty minutes at room temperature with end-over-end rotation. The 150 μl quenched digest reaction is added to the 10 μl FLAG-coated Protein G beads and incubated for 60 minutes at room temperature with end-over-end rotation to capture phage particles released at the protease digest step. Beads are rinsed once with 100 μl wash buffer and stored at −80° C. until PCR amplification.
Library PCR preparation, high-throughput DNA sequencing, and peptide read count data generation was performed as described previously.^44 Briefly, library peptide inserts are amplified by resuspending 10 μl of FLAG-coated Protein G beads in PCR1 master mix containing the T7-Pep2_PCR1_F forward primer ([…]) (SEQ ID NO:3) and a T7-SEPARATE vector specific reverse primer ([…]) (SEQ ID NO:4), which includes an adapter sequence for sample-specific barcoding and Illumina P7 adapter incorporation during a subsequent PCR2 reaction. The PCR2 amplicons are pooled and sequenced using an Illumina NextSeq instrument in standard output mode to obtain single-end 50 nucleotide reads. Dual indexed sample demultiplexing and clonal read count determination were performed using exact sequence matching. […] To calculate the normalization factor, 100 peptides were randomly selected from the mock digest conditions with a read count ranging between 10 and 40. The median read count value for these 100 peptides is calculated for each sample. The random peptide selection and median calculation is performed 20 times and the average of the 20 median values is calculated for each sample. Finally, the normalization factor is calculated by dividing the average median value for each sample by that for one of the mock digest conditions. Read counts are then converted to normalized read counts by dividing each sample's read count values by the normalization factor. Fold enrichments are calculated for each peptide by dividing their normalized read counts in the digest condition by the normalized read counts in the mock digest condition. The fold enrichments can be visualized in an MA plot by transforming the normalized read count data into a log ratio (M, on the y-axis) and a mean average (A, on the x-axis) between the digest and mock digest conditions.

B1 was tested, and the “known substrate peptide identified by SEPARATE” value was “identified”.

Same assay, conditions: top 20 enriched peptides, human library (90-aa tiles); digest vs mock digest

Compared with B2, B3 is higher in “Adam17 Fold Change” value: 38.34 fold for the first, 45.89 fold for the second.

Going from B4 to B5, the “Adam17 Fold Change” value rises from 39.99 fold to 57.55 fold.

First: B6
Second: B7
The “Adam17 Fold Change” value of the first is lower: 51.48 fold for the first, 57.97 fold for the second.

First: B8
Second: B9
The “Adam17 Fold Change” value of the first is lower: 39.07 fold for the first, 48.17 fold for the second.

Compared with B10, B11 is lower in “Adam17 Fold Change” value: 39.34 fold for the first, 34.93 fold for the second.

Compared with B12, B13 is lower in “Adam17 Fold Change” value: 41.41 fold for the first, 35.48 fold for the second.

Compared with B14, B15 is higher in “Adam17 Fold Change” value: 39.89 fold for the first, 43.29 fold for the second.

First: B16
Second: B17
The “Adam17 Fold Change” value of the first is lower: 34.57 fold for the first, 37.14 fold for the second.

Compared with B18, B19 is higher in “Adam17 Fold Change” value: 34.10 fold for the first, 35.48 fold for the second.

For B20, the “Adam17 Fold Change” value was 44.03 fold.

From patent publication US12091776B2, “Protease activity profiling via programmable phage display of comprehensive proteome-scale peptide libraries” (THE JOHNS HOPKINS UNIVERSITY, priority 2019, dated 2024)
